# Source: publication PMC6322289 (2019)
# B1: pro-hevein (natural protein)
# chain: EQCGRQAGGKLCPNNLCCSQWGWCGSTDEYCSPDHNCQSNCKDSGEGVGGGSASNVLATYHLYNSQDHGWDLNAASAYCSTWDANKPYSWRSKYGWTAFCGPVGAHGQSSCGKCLSVTNTGTGAKTTVRIVDQCSNGGLDLDVNVFRQLDTDGKGYERGHITVNYQFVDCGDSFNPLFSVMKSSVIN
# B2: hevein (natural protein)
# chain: EQCGRQAGGKLCPNNLCCSQWGWCGSTDEYCSPDHNCQSNCKD
# Biological target: β-1,3-glucanase (Hevea brasiliensis (endogenous in latex …, UniProt P52407 37-356))
# Assay: SPR
# β-1,3-glucanase (Hevea brasiliensis, sequence (P52407 37-356): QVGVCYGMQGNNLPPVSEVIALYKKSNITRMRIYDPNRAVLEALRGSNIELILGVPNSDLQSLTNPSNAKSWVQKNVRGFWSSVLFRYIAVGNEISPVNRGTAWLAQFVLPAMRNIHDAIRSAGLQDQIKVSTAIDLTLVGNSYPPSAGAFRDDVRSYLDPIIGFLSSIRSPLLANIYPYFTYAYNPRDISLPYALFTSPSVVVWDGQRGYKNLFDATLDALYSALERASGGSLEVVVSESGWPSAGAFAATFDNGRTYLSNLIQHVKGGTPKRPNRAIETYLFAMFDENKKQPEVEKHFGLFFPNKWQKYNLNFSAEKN
binder,measurement,value
B1,koff,0.0794 s⁻¹
B2,koff,0.013 s⁻¹
